Results as given in patent US20180030151A1 (MOGAM INSTITUTE FOR BIOMEDICAL RESEARCH, published 2018).
Where two headings read alike, the source gives them in different places.

What was measured:
Test in all cases: cell-based or functional assay
[1] = biological target: T1, recombinant human TFPI (tissue factor pathway inhibitor) (human, UniProt P10646 29-304)
[2] = biological target: T1, recombinant human TFPI (tissue factor …); remark: listed apart in the source
[3] = biological target: T1, recombinant human TFPI (tissue factor …); remark: listed apart in the source
[4] = biological target: T1, recombinant human TFPI (tissue factor …); remark: listed apart in the source

B1: clone 7 (antibody, V domains shown)
VH: EVQLVESGGGLVKPGGSLRLSCAASGFTFSSYAMNWVRQAPGKGLEWVGTITTGGSYTYYADSVDGRFTISRDNAKNSLYLQMNSLRAEDTAVYYCARQDGNFLMDYWGQGTLVTVSS
VL: DVVMTQTPLSLPVTLGQPASISCKSSPSLLDVDGKTYLNWLQQRPGQSPKRLIYLVSKLDSGVPDRFTGSGSGTDFTLKISRVEAEDVGVYYCWQGTHFPFTFGQGTKVEIKR
B1 was tested, and the “FXa assay % of FXa alone, 2.5 nM Ab, 10 nM TFPI” value [1] was 8.9%, the “FXa assay % of FXa alone, 5 nM Ab, 10 nM TFPI” value [1] was 31% and the “FXa assay % of FXa alone, 10 nM Ab, 10 nM TFPI” value [1] was 72.1%. The “FXa assay % of FXa alone, 20 nM Ab, 10 nM TFPI” value [1] was 75.4%, the “FXa assay OD, 2.5 nM Ab, 10 nM TFPI” value [1] was 0.0675 and the “FXa assay OD, 5 nM Ab, 10 nM TFPI” value [1] was 0.236. For the same binder, the “FXa assay OD, 10 nM Ab, 10 nM TFPI” value [1] was 0.549 and the “FXa assay OD, 20 nM Ab, 10 nM TFPI” value [1] was 0.574.

B2: clone 4206 (antibody, V domains shown)
VH: EVQLVESGGGLVKPGGSLRLSCAASGFTFSSYAMNWVRQAPGKGLEWVSTITTGGSHTYYADSVEGRFTISRDNAKNSLYLQMDSLRAEDTAVYYCARQDGNFLMDYWGQGTLVTVSS
VL: DVVMTQTPLSLPVTLGQPASISCKSSQSLLDVDGKTYLNWLQQRPGQSPKRLIYLVSKLDSGVPDRFTGSGSGTDFTLKISRVEAEDVGVYYCWQGTHLPFTFGQGTKVEIKR
In the case of B2, the “FXa assay % of FXa alone, 2.5 nM Ab, 10 nM TFPI” value [2] is reported as 4.7%, the “FXa assay % of FXa alone, 5 nM Ab, 10 nM TFPI” value [2] is reported as 6.1% and the “FXa assay % of FXa alone, 10 nM Ab, 10 nM TFPI” value [2] is reported as 7.1%. For the same binder, the “FXa assay % of FXa alone, 20 nM Ab, 10 nM TFPI” value [2] was 38.6%, the “FXa assay OD, 2.5 nM Ab, 10 nM TFPI” value [2] was 0.038 and the “FXa assay OD, 20 nM Ab, 10 nM TFPI” value [2] was 0.314.

B3: clone 1216 (antibody, V domains shown)
VH: EVQLVESGGGLVKPGGSLRLSCAASGFTFSHYAMNWVRQAPGKGLEWVSTITTGGSYTYYADSVEGRFTISRDNAKNSLYLQMNSLRAEDTAVYYCARQDGHFLMDYWGQGTLVTVSS
VL: DVVMTQTPLSLPVTLGQPASISCKSSQSLLDIDGKTYLNWLQQRPGQSPKRLIYLVSKLDSGVPDRFTGSGSGTDFTLKISRVEAEDVGVYYCWQGTHLPFTFGQGTKVEIKR
B3 was tested, and the “FXa assay % of FXa alone, 2.5 nM Ab, 10 nM TFPI” value [3] was 3.6%, the “FXa assay % of FXa alone, 5 nM Ab, 10 nM TFPI” value [3] was 4% and the “FXa assay % of FXa alone, 10 nM Ab, 10 nM TFPI” value [3] was 3.6%. For the same binder, the “FXa assay % of FXa alone, 20 nM Ab, 10 nM TFPI” value [3] was 3.3%.

B4: clone 1224 (antibody, V domains shown)
VH: EVQLVESGGGLVKPGGSLRLSCAASGFTFSSYAMSWVRQAPGKGLEWVSTITTGGSYTYYADSVDGRFTISRDNAKNSLYLQMNSLRAEDTAVYYCARQDGNFLMDYWGQGTLVTVSS
VL: DVVMTQTPLSLPVTLGQPASISCKSSQSLLDIDGKTYLNWLQQRPGQSPKRLIYLVSKLDSGVPDRFTGSGSGTDFTLKISRVEAEDVGVYYCWQGTHFPFTFGQGTKVEIKR
With B4 the “FXa assay % of FXa alone, 2.5 nM Ab, 10 nM TFPI” value [3] was 5.1%, the “FXa assay % of FXa alone, 5 nM Ab, 10 nM TFPI” value [3] was 6.9% and the “FXa assay % of FXa alone, 10 nM Ab, 10 nM TFPI” value [3] was 29%. For the same binder, the “FXa assay % of FXa alone, 20 nM Ab, 10 nM TFPI” value [3] was 66.1%, the “FXa assay OD, 5 nM Ab, 10 nM TFPI” value [3] was 0.06 and the “FXa assay OD, 10 nM Ab, 10 nM TFPI” value [3] was 0.252. The “FXa assay OD, 20 nM Ab, 10 nM TFPI” value [3] was 0.576.

B5: clone 1001 (antibody, V domains shown)
VH: EVQLVESGGGLVKPGGSLRLSCAASGFTFSSYAMNWVRQAPGKGLEWVSTITTGGSYTYYADSVDGRFTISRDNAKNSLYLQMNSLRAEDTAVYYCARQDGNFLMDYWGQGTLVTVSS
VL: DVVMTQTPLSLPVTLGQPASISCKSSQSLLDIDGKTYLNWLQQRPGQSPKRLIYLVSKLDSGVPDRFTGSGSGTDFTLKISRVEAEDVGVYYCWQGTHFPFTFGQGTKVEIKR
With B5 the “FXa assay % of FXa alone, 2.5 nM Ab, 10 nM TFPI” value [4] was 6.4%, the “FXa assay % of FXa alone, 5 nM Ab, 10 nM TFPI” value [4] was 10.3% and the “FXa assay % of FXa alone, 10 nM Ab, 10 nM TFPI” value [4] was 66.9%. For the same binder, the “FXa assay % of FXa alone, 20 nM Ab, 10 nM TFPI” value [4] was 73.9%, the “FXa assay OD, 2.5 nM Ab, 10 nM TFPI” value [4] was 0.031 and the “FXa assay OD, 5 nM Ab, 10 nM TFPI” value [4] was 0.05. The “FXa assay OD, 10 nM Ab, 10 nM TFPI” value [4] was 0.324 and the “FXa assay OD, 20 nM Ab, 10 nM TFPI” value [4] was 0.357.

B6: clone 1234 (antibody, V domains shown)
VH: EVQLVESGGGLVKPGGSLRLSCAASGFTFSSYAMNWVRQAPGKGLEWVSTITTGGSYTYYADSVQGRFTISRDNAKNSLYLQMNSLRAEDTAVYYCARQDGNFLMDYWGQGTLVTVSS
VL: DVVMTQTPLSLPVTLGQPASISCKSSQSLLDIDGKTYLNWLQQRPGQSPKRLIYLVSKLDSGVPDRFTGSGSGTDFTLEISRVEAEDVGVYYCWQGTHFPFTFGQGTKVEIKR
With B6 the “FXa assay % of FXa alone, 2.5 nM Ab, 10 nM TFPI” value [3] was 3.8%, the “FXa assay % of FXa alone, 5 nM Ab, 10 nM TFPI” value [3] was 3.6% and the “FXa assay % of FXa alone, 10 nM Ab, 10 nM TFPI” value [3] was 4.5%. For the same binder, the “FXa assay % of FXa alone, 20 nM Ab, 10 nM TFPI” value [3] was 4%.

B7: clone 4287 (antibody, V domains shown)
VH: EVQLVESGGGLVKPGGSLRLSCAASGFTFSKYAMNWFRQAPGKGLEWVSTITTGGSYTYYADSVEGRFTISRDNAKNSLYLQMNSLRAEDTAVYYCARQHPYGNFLMDYWGQGTLVTVSS
VL: DVVMTQTPLSLPVTLGQPASISCKSSQSLLDIDGKTYLNWLQQRPGQSPKRLIYLVSKLDSGVPDRFTGSGSGTDFTLKISRVEAEDVGVYYCWQGTHFPFTFGQGTKVEIKR
For B7, the “FXa assay % of FXa alone, 2.5 nM Ab, 10 nM TFPI” value [3] was 3.4%, the “FXa assay % of FXa alone, 5 nM Ab, 10 nM TFPI” value [3] was 3.5% and the “FXa assay % of FXa alone, 10 nM Ab, 10 nM TFPI” value [3] was 3.3%. For the same binder, the “FXa assay % of FXa alone, 20 nM Ab, 10 nM TFPI” value [3] was 2.5%.
